In publication PMC10875832 one finds Kd, stoichiometry N and fold weaker affinity than the D1 domain for the same knob data, which are given here for four substances.

Assay [1] concerns the target EDSV fibre knob (egg drop syndrome virus (EDSV)). Nature of the assay: SPR; Biacore X100, CM5 sensor chip; fibre knobs immobilised, soluble CAR domains in solution (said for D12); 1:1 binding model. (In general: Surface plasmon resonance follows binding to a sensor surface in real time, without labels.)
The target in assay [2] is FAdV-4 fiber1 knob (fowl adenovirus 4 (FAdV-4)). The assay is described as above.
Assay [3] shares this target. Nature of the assay: crystal structure; crystal in 20% (w/v) PEG 4000 and 0.15 M potassium sulfate; one chain in the asymmetric unit, trimer by crystal symmetry.
In assay [4] the target is CELO fiber1 knob (chicken embryo lethal orphan (CELO) virus). The assay can be described thus: SPR; Biacore X100, CM5 sensor chip; fibre knobs immobilised, soluble CAR domains in solution (said for D12); 1:1 binding model.

By Kd is commonly meant the equilibrium constant for the complex coming apart. The low end stands for a tighter complex, the high end for a looser complex. With “soluble CAR D1 domain (domain or fragment)”, the results for the dissociation constant (Kd) in assay [1] and in assay [2] were 2.76 µM and 7.42 µM, respectively.
For orientation: stoichiometry N means a count of units in the complex or per binding partner. As to FAdV-4 fiber1 knob (domain or fragment), in assay [3], the stoichiometry N amounted to 3.
Turning to “soluble CAR D2 domain (domain or fragment)”, the Kd in assay [1] is 4.77 µM; in assay [4], 11200 µM; in assay [2] it was 6.29 µM. In assay [4], this substance came in with a fold weaker affinity than the D1 domain for the same knob of 1000 fold.
With soluble CAR D12 (domain or fragment), the dissociation constant (Kd) in assay [1] was found to be 2.67 µM; in assay [2] it was 0.868 µM.
